Data published in IntAct's records for PubMed 9891048.

B1: DNA damage checkpoint control protein RAD17 (Saccharomyces cerevisiae), P48581 (parent)
chain: MRINSELANKFSASTVHLEHITTALSCLTPFGSKDDVLIFIDADGLSFVRENNHVIKIQLLLSRELFMSYSYRNETEDHMKLCVKINHILDSVSVMNRNSDDIVECTLSYDGHGSPFVLIFEDSFISERVEYSTYLIKDFDTNGLELDRERISFEAIIKGEALHSALKDLKEIGCKECYVYAKTEANDENVFALISKSQLGFSKIKLPSNRSILEKLQVFDGDSTTVIDGFAVIGFFDFTSFDKIRKSTKIASKVLFRMDVHGVLSVNILSQTDDVIITDTTRPSNNRPGSIRQLQLPKDYPGIVIEVCMLEKESIDEAAQTEIELLMETNELGNRNSFKKSTIRKRYGTDKGNETSNDNLLQLNGKKIKLPSEEENNKNRESEDEENHCKYPTKDIPIFF
partner: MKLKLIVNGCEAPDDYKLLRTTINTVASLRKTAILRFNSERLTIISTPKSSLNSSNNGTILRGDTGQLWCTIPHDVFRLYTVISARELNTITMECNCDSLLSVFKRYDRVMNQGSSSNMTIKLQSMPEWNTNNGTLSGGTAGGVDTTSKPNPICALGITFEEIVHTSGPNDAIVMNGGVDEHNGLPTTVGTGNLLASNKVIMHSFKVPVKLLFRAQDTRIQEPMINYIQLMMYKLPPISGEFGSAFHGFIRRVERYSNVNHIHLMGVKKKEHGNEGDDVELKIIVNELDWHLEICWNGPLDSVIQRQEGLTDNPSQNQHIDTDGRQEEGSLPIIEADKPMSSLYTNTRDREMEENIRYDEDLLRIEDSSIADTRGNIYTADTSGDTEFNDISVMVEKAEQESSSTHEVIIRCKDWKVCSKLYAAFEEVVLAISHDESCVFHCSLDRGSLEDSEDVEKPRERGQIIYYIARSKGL

Variants of: B1
Conditions: with mec3_yeast MEC3, Q02574

Variant	effect of a mutation on the interaction
E128K	decreasing interaction
